Assay results taken from US20040086528A1 (PROGENICS PHARMACEUTICALS, published 2004).

Key:
soluble CD4 = molecular target: T1, soluble CD4 (UniProt P01730 26-394); test: 125I-MIP-1β competition on activated CD4+ T cells
T1 construct: also called sCD4
Protocol: (§1) PBMCs were isolated from blood donors by Ficoll-Hypaque centrifugation, and stimulated for 2-3 days with phytohaemagglutnin (5 μg ml⁻¹) and IL-2 (100 U ml⁻¹) (Roche). CD4⁺ T cells were purified from the activated PBMCs by positive selection using anti-CD4 immunomagnetic beads (Dynal Inc.). […] The cells were screened for CCR-5-defective alleles(14), and only cells from wild-type donors were used (except when specified).
(§2) Unlabelled ligand or gp120 (mixed with monoclonal antibodies when appropriate) was added to the cells immediately before radiolabelled ligand was added. Anti-CD4 monoclonal antibodies were added to the cells simultaneously with gp120. These cells were then separated from unbound ligand by centrifugation (60 s, 14, 000 g) through oil (80% silicone oil, Aldrich; 20% mineral oil, Sigma), and the radioactivity in the cell pellet was determined by gamma counting. […] Each experiment was repeated at least twice using cells from different donors.

SF162 gp120 = molecular target: T2, SF162 gp120 (HIV-1 SF162, UniProt P19550 32-502); test: 125I-MIP-1β competition on activated CD4+ T cells
T2 construct: domain: gp120; also called SF 162 (B)
Protocol: as §1, §2

B1: chemokine receptor C-C CKR-5 (human) (receptor)
chain: not shown
notes: whole, on cells; also called CCR-5; CCR5
binding result (soluble CD4): no binding (tested: 50 µg ml^-1) | binding result (SF162 gp120): binds
